The target in assay [1] is T1, β-subunit of ATP synthase (Homo sapiens, UniProt P06576).
T1 construct: endogenous in cells; host or cells: HepG2 (ATCC)
Kind of assay: Flow cytometry detection of cell surface β-subunit of ATP synthase. The conditions noted are these: excess of free-apoA-I (100 nM), HepG2 cells. Format: cell-based. As for the experimental part: HepG2 and CHO cells were analyzed by fluorescence-assisted flow cytometry. Plots are shown for HepG2 (panel A) and CHO (panel C) where solid lines represent cells incubated with an anti b-subunit of ATP synthase mouse monoclonal IgG2a in absence (e) or presence (d) of 100 nM apoA-I, 250 μg/ml of FI-ATPase (c) or incubated with an isotypic control mouse IgG2a (a) and […] anti cytochrome oxidase subunit I mouse monoclonal IgG2a (b, dashed lines). In panel B and D, the histograms are expressed as the mean relative fluorescence of the curves a to e on HepG2 (B) or CHO cells (D).
For analysis of the cell surface EGF receptor, HepG2 cells are preincubated in medium with or without 20 nM EGF for 10 min at 37° C. For flow cytometry analysis, HepG2 and CHO cells are detached by incubation with Ca2+, Mg2+free PBS containing 2 mM EDTA, pH 7.4, fixed in 3% paraformaldehyde and pelleted in a microfuge. Cells are incubated at 20° C. for 1 h in PBS, pH 7.4 containing 1% BSA with either mouse monoclonal antibodies against the human β-subunit of ATP synthase, the human cytochrome oxidase subunit I, the human EGF receptor or against isotypic control IgG. […] The mean relative fluorescence after excitation at a wavelength of 488 nm is determined for each sample on a Coulter XL 4C flow cytometer and analysed with CELLQUEST software (Becton-Dickenson).

The next assay has as its system HepG2 cells and IHH. Put plainly: Cholesterol efflux. Format: cell-based, human. To be noted: free-apoA-I.

T1 sequence (P06576 48-529): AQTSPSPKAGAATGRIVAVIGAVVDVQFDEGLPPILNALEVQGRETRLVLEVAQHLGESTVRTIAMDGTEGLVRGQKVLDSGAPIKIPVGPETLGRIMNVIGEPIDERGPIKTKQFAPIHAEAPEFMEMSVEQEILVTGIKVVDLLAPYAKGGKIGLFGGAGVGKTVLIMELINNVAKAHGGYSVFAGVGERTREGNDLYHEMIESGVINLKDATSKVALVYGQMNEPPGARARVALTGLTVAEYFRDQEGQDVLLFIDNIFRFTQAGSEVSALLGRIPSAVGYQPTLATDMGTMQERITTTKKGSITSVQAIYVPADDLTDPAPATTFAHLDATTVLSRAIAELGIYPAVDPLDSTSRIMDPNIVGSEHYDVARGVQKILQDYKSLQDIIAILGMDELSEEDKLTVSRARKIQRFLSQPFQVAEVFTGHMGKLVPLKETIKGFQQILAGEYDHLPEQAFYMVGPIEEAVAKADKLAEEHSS
T1 sequence (P25705 44-553 partner): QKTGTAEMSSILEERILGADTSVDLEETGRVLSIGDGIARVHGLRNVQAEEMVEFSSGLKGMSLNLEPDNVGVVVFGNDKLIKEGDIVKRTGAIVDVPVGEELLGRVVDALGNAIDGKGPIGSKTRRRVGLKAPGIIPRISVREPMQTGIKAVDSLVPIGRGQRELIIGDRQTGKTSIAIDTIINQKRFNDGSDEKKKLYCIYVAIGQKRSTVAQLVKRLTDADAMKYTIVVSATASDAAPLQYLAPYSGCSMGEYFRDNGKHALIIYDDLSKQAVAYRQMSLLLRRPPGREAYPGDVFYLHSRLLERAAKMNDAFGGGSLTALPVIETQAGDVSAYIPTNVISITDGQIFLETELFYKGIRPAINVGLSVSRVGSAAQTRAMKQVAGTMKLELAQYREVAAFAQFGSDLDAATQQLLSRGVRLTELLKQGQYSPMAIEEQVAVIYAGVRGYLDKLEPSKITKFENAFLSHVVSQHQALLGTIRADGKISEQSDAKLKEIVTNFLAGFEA
T1 sequence (P36542 26-298 partner): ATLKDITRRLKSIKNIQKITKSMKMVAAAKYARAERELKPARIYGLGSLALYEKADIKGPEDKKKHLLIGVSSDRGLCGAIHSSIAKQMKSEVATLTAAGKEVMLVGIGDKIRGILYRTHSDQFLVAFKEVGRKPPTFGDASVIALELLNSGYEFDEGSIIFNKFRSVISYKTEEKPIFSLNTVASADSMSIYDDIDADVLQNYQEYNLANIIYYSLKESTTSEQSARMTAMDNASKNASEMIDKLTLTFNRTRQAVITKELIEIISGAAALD
T1 sequence (P30049 23-168 partner): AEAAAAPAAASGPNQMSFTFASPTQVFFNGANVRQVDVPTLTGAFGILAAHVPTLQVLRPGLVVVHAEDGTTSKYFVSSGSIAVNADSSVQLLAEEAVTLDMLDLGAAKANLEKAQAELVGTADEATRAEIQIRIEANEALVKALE
T1 sequence (P56381 2-51 partner limits assumed): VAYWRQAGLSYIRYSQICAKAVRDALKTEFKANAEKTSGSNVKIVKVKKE

Take “free-apoA-I: major apoprotein of HDL, single polypeptide chain of 243 amino acid residues, isolated from HDL3 by ion-exchange chromatography”: the “reduction of immunoreactivity of the anti β-subunit antibody” value in assay [1] was “more than 3 fold”. Moreover, in the assay on HepG2 cells and IHH, the “stimulation of the cholesterol efflux” value is recorded as 2 to 2.5 fold.

Source of the values: US20040072368A1, “Lipoprotein receptor” (priority 2002, published 2004).
